Test results published in patent US20200199241A1 (Chugai, published 2020).
Numbering of substitutions follows the chain as printed.

B1: IgG1-F747 (antibody)
heavy: QVQLQESGPGLVKPSETLSLTCAVSGHSISHDHAWSWVRQPPGEGLEWIGFISYSGITNYNPSLQGRVTISRDNSKNTLYLQMNSLRAEDTAVYYCARSLARTTAMDYWGEGTLVTVSSASTKGPSVFPLAPSSKSTSGGTAALGCLVKDYFPEPVTVSWNSGALTSGVHTFPAVLQSSGLYSLSSVVTVPSSSLGTQTYICNVNHKPSNTKVDKKVEPKSCDKTHTCPPCPAPELLGGDSVFLFPPKPKDILYISRTPEVTCVVVDVSHEDPEVKFNWYVDGVEVHNAKTKPREEQYNSTYRVVSVLTVLHQDWLNGKEYKCKVSNKALPAPIEKTISKAKGQPREPQVYTLPPSRDELTKNQVSLTCLVKGFYPSDIAVEWESNGQPENNYKTTPPVLDSDGSFFLYSKLTVDKSRWQQGNVFSCSVMHEALHYHYTQKSLSLSP
light: not shown
notes: EU numbering; copies: 2 + 2
B2: IgG1-F750 (antibody)
heavy: B1 heavy with I252M
light: not shown
notes: EU numbering; copies: 2 + 2
B3: IgG1-F765 (antibody)
heavy: B1 heavy with I252T, T309Q, L311E, Q313A
light: not shown
notes: EU numbering; copies: 2 + 2
B4: IgG1-F767 (antibody)
heavy: B1 heavy with D240P, I252T, Y254M, T309Q, L311E, Q313A
light: not shown
notes: EU numbering; copies: 2 + 2
B5: IgG1-F769 (antibody)
heavy: B1 heavy with D240P, I252T, Y254M, T309Q, L311E, Q313H
light: not shown
notes: EU numbering; copies: 2 + 2
B6: IgG1-F775 (antibody)
heavy: B1 heavy with D240P, I252T, K340A
light: not shown
notes: EU numbering; copies: 2 + 2
B7: IgG1-F768 (antibody)
heavy: B1 heavy with D240P, I252T, Y254M, T309A, L311E, Q313H
light: not shown
notes: EU numbering; copies: 2 + 2
B8: IgG1-F758 (antibody)
heavy: B1 heavy with I252Y
light: not shown
notes: EU numbering; copies: 2 + 2
B9: IgG1-F770 (antibody)
heavy: B1 heavy with D240P, I252T, T258A
light: not shown
notes: EU numbering; copies: 2 + 2
B10: IgG1-F764 (antibody)
heavy: B1 heavy with I252T, Y254M, T309Q, Q313A
light: not shown
notes: EU numbering; copies: 2 + 2
B11: IgG1-F753 (antibody)
heavy: B1 heavy with I252Q
light: not shown
notes: EU numbering; copies: 2 + 2
B12: IgG1-F773 (antibody)
heavy: B1 heavy with D240P, I252T, V284A
light: not shown
notes: EU numbering; copies: 2 + 2
B13: IgG1-F751 (antibody)
heavy: B1 heavy with I252N
light: not shown
notes: EU numbering; copies: 2 + 2
B14: IgG1-F763 (antibody)
heavy: B1 heavy with L237R, D240P, S241K, I252T, N288E, T309Q, Q313A
light: not shown
notes: EU numbering; copies: 2 + 2
B15: IgG1-F756 (antibody)
heavy: B1 heavy with I252V
light: not shown
notes: EU numbering; copies: 2 + 2
B16: IgG1-F771 (antibody)
heavy: B1 heavy with D240P, I252T, E274A
light: not shown
notes: EU numbering; copies: 2 + 2
B17: IgG1-F766 (antibody)
heavy: B1 heavy with D240P, I252T, Y254M, T309A, L311E, Q313A
light: not shown
notes: EU numbering; copies: 2 + 2
B18: IgG1-F772 (antibody)
heavy: B1 heavy with D240P, I252T, K276A
light: not shown
notes: EU numbering; copies: 2 + 2
B19: IgG1-F757 (antibody)
heavy: B1 heavy with I252W
light: not shown
notes: EU numbering; copies: 2 + 2
B20: IgG1-F774 (antibody)
heavy: B1 heavy with D240P, I252T, N288A
light: not shown
notes: EU numbering; copies: 2 + 2
B21: IgG1-F749 (antibody)
heavy: B1 heavy with I252L
light: not shown
notes: EU numbering; copies: 2 + 2
B22: IgG1-F762 (antibody)
heavy: B1 heavy with L237K, D240P, S241K, I252T, N288E, T309Q, Q313A
light: not shown
notes: EU numbering; copies: 2 + 2

Molecular target: T1, soluble human FcRn complexed with β2-microglobulin (human, UniProt P61769 21-119, limits assumed)
T1 construct: also called hFcRn
Experiment: Biacore SPR, pH 7.0;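 also: test antibodies captured on a Protein L chip with human FcRn flowed over as analyte, KD obtained as the ratio of dissociation to association rate constants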

Kd [µM] | Binder
0.28 | B1
0.3 | B2
0.085 | B3
0.43 | B4
0.46 | B5
0.62 | B6
0.64 | B7
1.4 | B8
0.5 | B9
0.63 | B10
0.18 | B11
0.39 | B12
0.53 | B13
0.035 | B14
0.37 | B15
0.4 | B16
0.6 | B17
0.38 | B18
1.2 | B19
0.4 | B20
0.51 | B21
0.036 | B22
